Assay results as given in the supplement of paper PMC12042874.
± gives the uncertainty stated by the source.

Assay: amyloid nucleation score (Sup35N fusion, yeast selection) (log enrichment); library NNK3; higher = more nucleation; inactive = no reads after selection
Procedure, shortened: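 After 24 hours of induction with 100 μM copper sulfate, psi-negative yeast expressing peptides of 20 random codons fused to Sup35N were grown for 7 days at 30°C on medium lacking adenine and uracil. Input and output plasmid inserts were sequenced with Illumina, and sequences with under 100 input reads were discarded. Scores for nucleation are the DiMSum log enrichment of output over input reads, centred on the mode score of non-aggregating sequences.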

Q: For GYIRPALMARGYIVVNSANI, which amyloid nucleation score is on record?
A: inactive

Q: Which amyloid nucleation score does the source give for QFLKGDCRYLDPGMDLDRG here?
A: inactive

Q: Which amyloid nucleation score does the source give for LVFSRACTLVDTIE here?
A: inactive

Q: Which amyloid nucleation score does the source give for SFNCPNAWSVYLL here?
A: inactive

Q: With NALYTSLYRLNLGFWAQMLP as the substance, how does the amyloid nucleation score read?
A: inactive

Q: For GNWTQ, which amyloid nucleation score is on record?
A: inactive

Q: For FLGDSTNGRRFFSEFRSEWG, which amyloid nucleation score is on record?
A: 0.964 ± 0.17

Q: For KCMQVVSSRSWVVHWGWKGG, which amyloid nucleation score is on record?
A: inactive

Q: Which amyloid nucleation score does the source give for GFMGFVTSHVKMTGNMCNEI here?
A: inactive

Q: Which amyloid nucleation score does the source give for KGHCQAVGLKEEKPR here?
A: inactive

Q: Which amyloid nucleation score does the source give for SFDQNRRVVIFVSPHSEGMR here?
A: inactive

Q: Which amyloid nucleation score does the source give for CIILAGYISLLRLDNDSGWV here?
A: inactive

Q: For EFDDRACYDDTV, which amyloid nucleation score is on record?
A: inactive

Q: Which amyloid nucleation score does the source give for NGSVSVKSLIFLDDCCSSWA here?
A: inactive

Q: For MSCTDRYEIL, which amyloid nucleation score is on record?
A: inactive

Q: With INNLFTRVSSIRFCVRS as the substance, how does the amyloid nucleation score read?
A: inactive

Q: With CYSNTLELNDARNCFFNWVR as the substance, how does the amyloid nucleation score read?
A: inactive

Q: With FHLYCTIITLACCIMVWNCQ as the substance, how does the amyloid nucleation score read?
A: 1.33 ± 0.14

Q: With RVRSDGANGWGVVMNACWMS as the substance, how does the amyloid nucleation score read?
A: inactive

Q: With FHNFVRHIYAGGNRP as the substance, how does the amyloid nucleation score read?
A: inactive

Q: For PCLSMRSNLRGYTWWSVGGY, which amyloid nucleation score is on record?
A: 1.11 ± 0.14

Q: Which amyloid nucleation score does the source give for DALVSYCWLSNLDTAGKMET here?
A: inactive

Q: For NSCQGE, which amyloid nucleation score is on record?
A: inactive

Q: Which amyloid nucleation score does the source give for FYKMVGVRYGC here?
A: inactive

Q: For RVFYIVDMVFIFKRCSIRES, which amyloid nucleation score is on record?
A: inactive

Q: Which amyloid nucleation score does the source give for NFSMMPTMLRRVWIGMCSSM here?
A: inactive

Q: For LLGWCCSDNPDRRKEY, which amyloid nucleation score is on record?
A: inactive

Q: With LLFAYLMRMRISVHIWVRGT as the substance, how does the amyloid nucleation score read?
A: inactive

Q: For TEYTILLASRNLFPTR, which amyloid nucleation score is on record?
A: 0.598 ± 0.25

Q: For LTFIMLCIS, which amyloid nucleation score is on record?
A: 1.24 ± 0.12

Q: For FQRVCYHVWSTKN, which amyloid nucleation score is on record?
A: inactive

Q: With SHRVNWFLCSCLESYFMCNT as the substance, how does the amyloid nucleation score read?
A: -0.522 ± 0.78

Q: Which amyloid nucleation score does the source give for ANYVYNQTVMCS here?
A: inactive

Q: Which amyloid nucleation score does the source give for VFGGNVIKSYVKITFQPGFD here?
A: 2.22 ± 0.061

Q: Which amyloid nucleation score does the source give for DVLGVSSASERAFGFENRAL here?
A: inactive

Q: With CMVFMYQILVPAWALRSYIL as the substance, how does the amyloid nucleation score read?
A: inactive

Q: Which amyloid nucleation score does the source give for CQVSCFNLVSIKSWDKIAGS here?
A: 2.52 ± 0.06

Q: Which amyloid nucleation score does the source give for NHNIHVNGFHFN here?
A: inactive

Q: For NLVAMVYSLLSSNWKEVISK, which amyloid nucleation score is on record?
A: -0.406 ± 0.8

Q: Which amyloid nucleation score does the source give for AARISRGVPWYGQEMKGRVR here?
A: inactive

Q: Which amyloid nucleation score does the source give for CFAKCFMKNLRSIGRVFLMG here?
A: inactive

Q: Which amyloid nucleation score does the source give for FYSSACVRPVVRYCCVMCDS here?
A: inactive

Q: Which amyloid nucleation score does the source give for FIWSAGGIITSHNCLYWQAS here?
A: inactive

Q: For LPYLKQ, which amyloid nucleation score is on record?
A: inactive

Q: For DKMKQKAQKVEDLHMAIGDD, which amyloid nucleation score is on record?
A: inactive

Q: For VFLACNYFILSRNDLKWGYP, which amyloid nucleation score is on record?
A: 2.56 ± 0.06

Q: With EHPLMSSSVSSTNMFNYAQI as the substance, how does the amyloid nucleation score read?
A: inactive

Q: With GCNEHI as the substance, how does the amyloid nucleation score read?
A: inactive

Q: For FTSNAESTLWTRPRNYRNVS, which amyloid nucleation score is on record?
A: inactive

Q: Which amyloid nucleation score does the source give for SSWSSRATLMLSSEVKSDMV here?
A: inactive

Q: Which amyloid nucleation score does the source give for TTSLMSKVFY here?
A: inactive

Q: For SYVAVPR, which amyloid nucleation score is on record?
A: inactive

Q: With LQWVRLVSRVQSTDCNLGAG as the substance, how does the amyloid nucleation score read?
A: inactive

Q: With ILWFMDGMIRSRGVPLGDGC as the substance, how does the amyloid nucleation score read?
A: inactive

Q: For IYPFSDMLSFWGMGKCELLR, which amyloid nucleation score is on record?
A: -0.361 ± 1.1

Q: For FGKGVCRLD, which amyloid nucleation score is on record?
A: inactive

Q: With SSCKWLFTSSHPSHPEAS as the substance, how does the amyloid nucleation score read?
A: inactive

Q: With IIIFWLFLSGEIDECNNCAV as the substance, how does the amyloid nucleation score read?
A: inactive

Q: For YWDVNQGVYGINYGTVSHS, which amyloid nucleation score is on record?
A: 0.256 ± 0.43

Q: With SIGNAIS as the substance, how does the amyloid nucleation score read?
A: inactive

Q: With VWQRAKSSTIGPLIW as the substance, how does the amyloid nucleation score read?
A: inactive

Q: With ADCNWVNNVMSVKGLMSVVM as the substance, how does the amyloid nucleation score read?
A: inactive

Q: For GNYVRIETS, which amyloid nucleation score is on record?
A: inactive

Q: For STLGRKVRFTVVLITIGVLT, which amyloid nucleation score is on record?
A: inactive

Q: For GLVCFYTGLDVMLDTREFYR, which amyloid nucleation score is on record?
A: inactive

Q: For IKTGYSTHDPNHVDNTIRSR, which amyloid nucleation score is on record?
A: inactive

Q: For RWDVEIPNLQICKRT, which amyloid nucleation score is on record?
A: inactive

Q: For VARIIYQRIW, which amyloid nucleation score is on record?
A: inactive

Q: Which amyloid nucleation score does the source give for VPPVVSAP here?
A: 1.05 ± 0.12

Q: For VKAVLY, which amyloid nucleation score is on record?
A: inactive

Q: With VLLSRMIYALPGYSVL as the substance, how does the amyloid nucleation score read?
A: 1.93 ± 0.075

Q: Which amyloid nucleation score does the source give for AQTYSMCFNITKHPYNSMCG here?
A: inactive

Q: With ARHVLAGCKRMLYHFEGRVG as the substance, how does the amyloid nucleation score read?
A: -0.643 ± 1.3

Q: Which amyloid nucleation score does the source give for SYMACYFSIAYEYFNSTFDK here?
A: inactive

Q: Which amyloid nucleation score does the source give for DSSLKMGCKGWNVYVGATLV here?
A: 0.866 ± 0.16

Q: Which amyloid nucleation score does the source give for LPIQVSFVMVRWGSMFMFRN here?
A: inactive

Q: For DLAYIGVFLIMFCFTSVDSM, which amyloid nucleation score is on record?
A: -0.225 ± 0.58

Q: For SLNWVGVCNMKSPVNSTQSI, which amyloid nucleation score is on record?
A: 0.329 ± 0.67

Q: Which amyloid nucleation score does the source give for VNCQCSSEWCHKNSVYFIRY here?
A: 2.59 ± 0.087

Q: For RGKFHRVA, which amyloid nucleation score is on record?
A: inactive

Q: Which amyloid nucleation score does the source give for QCSIFIIC here?
A: 2.41 ± 0.076
